From publication PMC5960627 (Biochemical pharmacology, 2018)

Target: Calmodulin (UniProt P0DP23 1-149)
Experiment: other fluorescence titration

| Binder | Kd [µM] |
| --- | --- |
| YTLIAKALKKAAEIQKNQPRNDDIAKII (domain or fragment) [BSAT1R_(215-242mut), FRET biosensor with mutant AT1R a.a. 215-242 (SMD3) between EYFPc and ECFP] | 4.52 |
| AKRYALQLLKAIPPKAQSH (domain or fragment) [BSAT1R_(309-327mut), FRET biosensor with mutant AT1R a.a. 309-327 (SMD4JM) between EYFPc and ECFP] | 6.6 |
| DRYLAIVHPMKSRLRRT (domain or fragment) [BSAT1R_(125-141), FRET biosensor with AT1R a.a. 125-141 (SMD2) between EYFPc and ECFP] | 13.9 |
| DQALAIVHPMKSQLRQT (domain or fragment) [BSAT1R_(125-141mut), FRET biosensor with mutant AT1R a.a. 125-141 (SMD2) between EYFPc and ECFP] | > 318 |

The next binders have a lower Kd than those just listed; values first:

| Kd [µM] | Binder |
| --- | --- |
| 1.05 | YTLIWKALKKAYEIQKNK (domain or fragment) [BSAT1R_(215-232), FRET biosensor with AT1R a.a. 215-232 (part of SMD3) between EYFPc and ECFP] |
| 0.51 | FKRYFLQLLKYIPPKAKSH (domain or fragment) [BSAT1R_(309-327), FRET biosensor with AT1R a.a. 309-327 (SMD4JM) between EYFPc and ECFP] |
| 0.36 | YTLIWKALKKAYEIQKNKPRNDDIFKII (domain or fragment) [BSAT1R_(215-242), FRET biosensor with AT1R a.a. 215-242 (entire SMD3) between EYFPc and ECFP] |
